This note sets out measurements from patent publication US20250034273A1 (ARBELE, published 2025).

Assay [1] has as its target T1, human Trop2 (human, UniProt P09758 27-274, limits assumed).
T1 sequence (looked up): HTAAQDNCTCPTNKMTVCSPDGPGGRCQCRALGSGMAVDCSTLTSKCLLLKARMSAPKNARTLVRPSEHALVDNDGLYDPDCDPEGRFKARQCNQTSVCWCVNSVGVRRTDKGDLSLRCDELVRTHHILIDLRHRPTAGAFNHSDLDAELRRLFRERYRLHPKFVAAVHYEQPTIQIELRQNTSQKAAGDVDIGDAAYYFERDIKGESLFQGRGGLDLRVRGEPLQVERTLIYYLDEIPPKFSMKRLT
In words: absorbance assay (Net absorbance, Abs 450) on 'Trop2-hFc'; one unprinted antibody concentration.

Assay [2] addresses human CD3 (human). In words: Octet sensorgrams (nm against time), panel 'Human CD3', association to about 900 s, dissociation to 1800 s.
The target in another assay is T2, monkey CD3 (monkey).
T2 chain: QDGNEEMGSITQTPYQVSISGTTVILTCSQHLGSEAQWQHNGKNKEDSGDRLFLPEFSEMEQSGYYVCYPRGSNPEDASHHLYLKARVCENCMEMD
In words: Octet sensorgrams (nm against time), panel 'Cynomolgus CD3', association to about 900 s, dissociation to 1800 s. In general terms: BLI is a label-free optical method that tracks binding on a fibre tip over time.

Assay [3] concerns the target T1, human Trop2. Nature of the assay: Octet (BLI).
The target in assay [4] is T3, Trop2 on cells (Trop2-positive SW480 cells; Trop2-expressing HEK293 cells) (UniProt P09758 27-323, limits assumed).
T3 construct: whole, on cells
T3 sequence (looked up): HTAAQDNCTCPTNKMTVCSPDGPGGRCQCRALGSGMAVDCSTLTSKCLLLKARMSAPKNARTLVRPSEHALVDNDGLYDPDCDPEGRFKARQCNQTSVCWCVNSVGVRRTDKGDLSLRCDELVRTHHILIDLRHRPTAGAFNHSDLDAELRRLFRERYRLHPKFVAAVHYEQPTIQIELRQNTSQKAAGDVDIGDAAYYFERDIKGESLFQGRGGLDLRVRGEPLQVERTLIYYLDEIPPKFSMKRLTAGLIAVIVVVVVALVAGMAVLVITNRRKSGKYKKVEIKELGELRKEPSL
Nature of the assay: receptor occupancy (%) on Trop2-positive SW480 cells against ARB203 (nM).

The target of assay [5] is T3, Trop2 on cells (Trop2-positive SW480 …). In words: receptor occupancy (Percentage) on DLD1/DLD1-2C7 cancer cells against ARB203 (nM); Trop2 arm of ARB203.
Assay [6] concerns the target human CD3 (human). Nature of the assay: receptor occupancy (Percentage) on PBMC against ARB203 (nM); the legend speaks of occupancy on T cells, the CD3 arm of ARB203.
Assay [7] addresses T4, PD1 expressed on HEK293F cells (UniProt Q15116 25-288, limits assumed).
T4 construct: whole, on cells; also called HEK293F expressing PD1; HKE293F expressing PD1
Nature of the assay: flow cytometry binding, receptor occupancy (0 to 1) on HEK293F cells expressing PD1 against Antibody (nM). For orientation: Flow cytometry measures light scatter and fluorescence of single cells or particles in a stream.

Sequence of human CD3 (human) (chain, as listed by the source): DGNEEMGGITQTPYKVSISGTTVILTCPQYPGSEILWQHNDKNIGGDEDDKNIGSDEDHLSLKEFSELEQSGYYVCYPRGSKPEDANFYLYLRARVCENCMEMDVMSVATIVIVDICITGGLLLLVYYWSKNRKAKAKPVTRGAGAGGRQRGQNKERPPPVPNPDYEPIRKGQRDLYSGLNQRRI
T4 sequence (Q15116 25-288 limits assumed): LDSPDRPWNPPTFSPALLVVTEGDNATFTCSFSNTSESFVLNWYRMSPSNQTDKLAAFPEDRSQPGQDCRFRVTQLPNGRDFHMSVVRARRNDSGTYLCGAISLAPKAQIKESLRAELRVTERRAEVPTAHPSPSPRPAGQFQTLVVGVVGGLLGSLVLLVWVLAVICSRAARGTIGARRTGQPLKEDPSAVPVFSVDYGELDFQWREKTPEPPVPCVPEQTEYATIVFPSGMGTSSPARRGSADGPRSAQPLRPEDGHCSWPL

B1: ARB203-h3G8 v1 (bispecific antibody)
heavy: EVQLVESGGGLVQPGGSLRLSCAASGFTFSTYTMSWVRQTPAKGLVWVSTINSDGYNIYYSDSMKGRFTISRDNAKYTLYLQMNSLRAEDTAMYYCARCSYYSYDYFDYWGQGTLVTVSSASTKGPSVFPLAPSSKSTSGGTAALGCLVKDYFPEPVTVSWNSGALTSGVHTFPAVLQSSGLYSLSSVVTVPSSSLGTQTYICNVNHKPSNTKVDKRVEPKSCDKTHTCPPCPAPELLGGPSVFLFPPKPKDTLMISRTPEVTCVVVDVSQEDPEVQFNWYVDGVEVHNAKTKPREEQFNSTYRVVSVLTVLHQDWLNGKEYKCKVSNKGLPSSIEKTISKAKGQPREPQVYTLPPSQEEMTKNQVSLTCLVKGFYPSDIAVEWESNGQPENNYKTTPPVLDSDGSFFLYSRLTVDKSRWQEGNVFSCSVMHEALHNHYTQKSLSLSLGKPAGGGGSQVQLVQSGAEVKKPGASVKVSCKASGYTFTSYYMHWVRQAPGQGLEWMGWIYPENVNTNYAQKFQGRVTMTRDTSISTAYMELSRLRSDDTAVYYCARDSYGSYFFDYWGQGTLVTVSSGGGGSGGGGSGGGGSDIVMTQSPDSLAVSLGERATINCKSSQSLLNSRTRKNYLAWYQQKPGQPPKLLIYWASTRESGVPDRFSGSGSGTDFTLTISSLQAEDVAVYYCTQSFILRTFGQGTKVEIK
light: DIQMTQSPSSLSASVGDRVTITCRASENIDNYLAWYQQKQGKVPKLLIYAATNLADGMPSRFSGSGSGTDFTLTISSLQPEDVATYYCQHYYSNQLTFGQGTKLEIKRTVAAPSVFIFPPSDEQLKSGTASVVCLLNNFYPREAKVQWKVDNALQSGNSQESVTEQDSKDSTYSLSSTLTLSKADYEKHKVYACEVTHQGLSSPVTKSFNRGEC
notes: also called h8B5-h3G8 V1; h8B5-h3G8v1
Turning to B1, the binding result with human Trop2 [1] was “binds”.

B2: h8B5-h3G8v2, bispecific anti-Trop2 (h8B5) / anti-CD3 (h3G8 scFv V2, VL-VH with 3xGS linker) (bispecific antibody, human IgG1, kappa)
heavy: EVQLVESGGGLVQPGGSLRLSCAASGFTFSTYTMSWVRQTPAKGLVWVSTINSDGYNIYYSDSMKGRFTISRDNAKYTLYLQMNSLRAEDTAMYYCARCSYYSYDYFDYWGQGTLVTVSSASTKGPSVFPLAPSSKSTSGGTAALGCLVKDYFPEPVTVSWNSGALTSGVHTFPAVLQSSGLYSLSSVVTVPSSSLGTQTYICNVNHKPSNTKVDKRVEPKSCDKTHTCPPCPAPELLGGPSVFLFPPKPKDTLMISRTPEVTCVVVDVSQEDPEVQFNWYVDGVEVHNAKTKPREEQFNSTYRVVSVLTVLHQDWLNGKEYKCKVSNKGLPSSIEKTISKAKGQPREPQVYTLPPSQEEMTKNQVSLTCLVKGFYPSDIAVEWESNGQPENNYKTTPPVLDSDGSFFLYSRLTVDKSRWQEGNVFSCSVMHEALHNHYTQKSLSLSLGKPAGGGGSDIVMTQSPDSLAVSLGERATINCKSSQSLLNSRTRKNYLAWYQQKPGQPPKLLIYWASTRESGVPDRFSGSGSGTDFTLTISSLQAEDVAVYYCTQSFILRTFGQGTKVEIKGGGGSGGGGSGGGGSQVQLVQSGAEVKKPGASVKVSCKASGYTFTSYYMHWVRQAPGQGLEWMGWIYPENVNTNYAQKFQGRVTMTRDTSISTAYMELSRLRSDDTAVYYCARDSYGSYFFDYWGQGTLVTVSS
light: DIQMTQSPSSLSASVGDRVTITCRASENIDNYLAWYQQKQGKVPKLLIYAATNLADGMPSRFSGSGSGTDFTLTISSLQPEDVATYYCQHYYSNQLTFGQGTKLEIKRTVAAPSVFIFPPSDEQLKSGTASVVCLLNNFYPREAKVQWKVDNALQSGNSQESVTEQDSKDSTYSLSSTLTLSKADYEKHKVYACEVTHQGLSSPVTKSFNRGEC
notes: IgG4 Fc with IgG1 hinge, scFv at the heavy chain C-terminus
Consider B2, for which the results for the Kd in the assay with human CD3 [2] and with monkey CD3 were 3700 pM and 802 pM, respectively.

B3: ARB203, bispecific antibody of anti-Trop2 (h8B5) and anti-CD3 (UCHT1) (bispecific antibody, human IgG1, kappa)
heavy: EVQLVESGGGLVQPGGSLRLSCAASGFTFSTYTMSWVRQTPAKGLVWVSTINSDGYNIYYSDSMKGRFTISRDNAKYTLYLQMNSLRAEDTAMYYCARCSYYSYDYFDYWGQGTLVTVSSASTKGPSVFPLAPSSKSTSGGTAALGCLVKDYFPEPVTVSWNSGALTSGVHTFPAVLQSSGLYSLSSVVTVPSSSLGTQTYICNVNHKPSNTKVDKRVEPKSCDKTHTCPPCPAPELLGGPSVFLFPPKPKDTLMISRTPEVTCVVVDVSQEDPEVQFNWYVDGVEVHNAKTKPREEQFNSTYRVVSVLTVLHQDWLNGKEYKCKVSNKGLPSSIEKTISKAKGQPREPQVYTLPPSQEEMTKNQVSLTCLVKGFYPSDIAVEWESNGQPENNYKTTPPVLDSDGSFFLYSRLTVDKSRWQEGNVFSCSVMHEALHNHYTQKSLSLSLGKPAGGGGSEVQLVESGGGLVQPGGSLRLSCAASGYSFTGYTMNWVRQAPGKGLEWVALINPYKGVSTYNQKFKDRFTISVDKSKNTAYLQMNSLRAEDTAVYYCARSGYYGDSDWYFDVWGQGTLVTVSSGGGGSGGGGSGGGGSDIQMTQSPSSLSASVGDRVTITCRASQDIRNYLNWYQQKPGKAPKLLIYYTSRLESGVPSRFSGSGSGTDYTLTISSLQPEDFATYYCQQGNTLPWTFGQGTKVEIK
light: DIQMTQSPSSLSASVGDRVTITCRASENIDNYLAWYQQKQGKVPKLLIYAATNLADGMPSRFSGSGSGTDFTLTISSLQPEDVATYYCQHYYSNQLTFGQGTKLEIKRTVAAPSVFIFPPSDEQLKSGTASVVCLLNNFYPREAKVQWKVDNALQSGNSQESVTEQDSKDSTYSLSSTLTLSKADYEKHKVYACEVTHQGLSSPVTKSFNRGEC
notes: IgG4 Fc with IgG1 hinge; Bivalent Fab to Trop2 and bivalent scFv to CD3 at the heavy chain C-terminus
B3 had a Kd in the assay with human Trop2 [3] of at most 1 pM. The EC50 in assay [4] stood at 155 pM; with human CD3 [6] it was 20900 pM. In assay [5], the “EC50 (read off the curve)” value was around 400 pM.

B4: ARB204, CDH17-PD1 bispecific antibody (anti-CDH17 10C12 Fab, anti-PD1 1C8 scFv) (bispecific antibody, human IgG1, kappa)
heavy: EVQLVESGGGLVQPGGSLRLSCAASGFTFSSYAMSWVRQTPGKGLEWVAVIDSNGGSTYYPDTVKDRFTISRDNSKNTLYLQMNSLRAEDTAVYYCSSYTNLGAYWGQGTLVTVSAASTKGPSVFPLAPSSKSTSGGTAALGCLVKDYFPEPVTVSWNSGALTSGVHTFPAVLQSSGLYSLSSVVTVPSSSLGTQTYICNVNHKPSNTKVDKRVEPKSCDKTHTCPPCPAPELLGGPSVFLFPPKPKDTLMISRTPEVTCVVVDVSQEDPEVQFNWYVDGVEVHNAKTKPREEQFNSTYRVVSVLTVLHQDWLNGKEYKCKVSNKGLPSSIEKTISKAKGQPREPQVYTLPPSQEEMTKNQVSLTCLVKGFYPSDIAVEWESNGQPENNYKTTPPVLDSDGSFFLYSRLTVDKSRWQEGNVFSCSVMHEALHNHYTQKSLSLSLGKPAGGGGSEVQLVESGGGLVQPGGSLRLSCAASGFTFSRSTMSWVRQAPGKGLEWVATISGGGLNTYFPDSVKGRFTISRDNSKNTLYLQMNSLRAEDTAVYYCTRNSNSYYFALDYWGQGTLVTVSSGGGGSGGGGSGGGGSEIVLTQSPATLSLSPGERATLSCRASESVDNSGVSFMNWYQQKPGQAPRLLIYIASNQVSGIPARFSGSGSGTDFTLTISSLEPEDFAVYYCQQIKEVPWTFGGGTKVEIK
light: DIQMTQSPSSLSASVGDRVTITCRASQDISGYLNWLQQKPGGAIKRLIYTTSTLDSGVPKRFSGSGSGTDFTLTISSLQSEDFATYYCLQYASSPFTFGGGTKVEIKRTVAAPSVFIFPPSDEQLKSGTASVVCLLNNFYPREAKVQWKVDNALQSGNSQESVTEQDSKDSTYSLSSTLTLSKADYEKHKVYACEVTHQGLSSPVTKSFNRGEC
notes: IgG4 Fc with IgG1 hinge, bivalent to each target
As to B4, the EC50 in assay [7] was found to be 217 pM.

As a reminder, the Kd is the constant that tells how readily two partners part at equilibrium. By EC50 is commonly meant the concentration giving half of the maximal effect. As a reminder, the EC50 (read off the curve) is the concentration giving half of the maximal effect.
